Assay results taken from publication PMC4036514, “Requirement for A-type cyclin-dependent kinase and cyclins for the terminal division in the stomatal lineage of Arabidopsis”.

T1: His-FLP (FOUR LIPS) (Arabidopsis thaliana, UniProt Q94FL6 1-436)
T1 sequence: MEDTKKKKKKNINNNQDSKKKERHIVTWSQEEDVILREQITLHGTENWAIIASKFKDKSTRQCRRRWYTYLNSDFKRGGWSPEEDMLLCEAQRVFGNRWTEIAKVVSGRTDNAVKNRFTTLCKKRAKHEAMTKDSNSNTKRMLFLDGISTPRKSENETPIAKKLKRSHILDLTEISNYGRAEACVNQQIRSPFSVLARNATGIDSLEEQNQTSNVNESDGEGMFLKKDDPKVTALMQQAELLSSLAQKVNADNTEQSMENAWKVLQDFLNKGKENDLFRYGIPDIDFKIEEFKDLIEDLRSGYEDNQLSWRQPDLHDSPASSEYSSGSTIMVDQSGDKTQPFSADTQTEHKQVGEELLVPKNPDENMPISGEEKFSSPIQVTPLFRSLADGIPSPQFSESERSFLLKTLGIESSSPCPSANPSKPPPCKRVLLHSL

T2: His-MYB88 (Arabidopsis thaliana, UniProt F4IRB4 1-484)
T2 sequence: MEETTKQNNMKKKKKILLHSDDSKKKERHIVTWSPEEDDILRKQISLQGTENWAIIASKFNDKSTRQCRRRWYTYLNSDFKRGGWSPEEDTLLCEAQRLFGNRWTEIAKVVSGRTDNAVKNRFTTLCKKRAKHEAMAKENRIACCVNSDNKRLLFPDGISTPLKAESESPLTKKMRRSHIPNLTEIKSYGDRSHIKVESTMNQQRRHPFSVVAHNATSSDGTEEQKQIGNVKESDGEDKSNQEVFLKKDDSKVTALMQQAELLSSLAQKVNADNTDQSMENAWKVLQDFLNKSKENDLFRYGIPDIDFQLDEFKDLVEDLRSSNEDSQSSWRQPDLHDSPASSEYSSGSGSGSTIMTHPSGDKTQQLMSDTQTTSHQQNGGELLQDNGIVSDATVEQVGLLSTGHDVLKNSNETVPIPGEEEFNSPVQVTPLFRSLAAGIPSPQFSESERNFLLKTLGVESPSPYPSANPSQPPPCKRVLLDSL

B1: pCDKA-C+D (elements C and D) (dsDNA)
DNA 1: TTACTCTCAATTAGTCAATCCCCTTCCCTAGTCCTCCTCTCTTCAAGCTTTTCACAGAA
DNA 2: TTCTGTGAAAAGCTTGAAGAGAGGAGGACTAGGGAAGGGGATTGACTAATTGAGAGTAA
B2: pCDKA-B (element B) (dsDNA)
DNA 1: CTTGACACAAAAAAAAAAAAAGAAGAAAGAAAAAACCCTTACTCTCAATTAGTCAATCC
DNA 2: GGATTGACTAATTGAGAGTAAGGGTTTTTTCTTTCTTCTTTTTTTTTTTTTGTGTCAAG
B3: pCDKA-A (element A) (dsDNA)
DNA 1: TAATAAATAAAATTGTACCAAATTAATGCGGTTAGGTAAATTCAATTTATTGGAAATTA
DNA 2: TAATTTCCAATAAATTGAATTTACCTAACCGCATTAATTTGGTACAATTTTATTTATTA

biological target: T1, His-FLP (FOUR LIPS); experiment: EMSA; EMSA: 1x LightShift binding buffer, 2.5% glycerol, 50 mM KCl, 5 mM MgCl2, 0.05% NP-40, 10 mM EDTA, room temperature 20 min; pH not stated; conditions: protein: recombinant; tags: His (pET-28a); label: 3' biotin; blunt

Binding result, binds:
B1, B2, B3

biological target: T2, His-MYB88; experiment: as above; conditions: protein: recombinant; tags: His (pET-28a); label: 3' biotin; blunt

Binding result, binds:
B1, B2, B3
